The record followed here is article PMC9628839, “Structure Based Protein Engineering of Aldehyde Dehydrogenase from Azospirillum brasilense to Enhance Enzyme Activity against Unnatural 3-Hydroxypropionaldehyde” (Journal of Microbiology and Biotechnology, 2021).

Numbering of substitutions follows the chain as printed. Names and notes keep the numbering of the source.

B1: AbKGSADH (Azospirillum brasilense; P444F) (protein)
chain: ANVTYTDTQLLIDGEWVDAASGKTIDVVNPATGKPIGRVAHAGIADLDRALAAAQSGFEAWRKVPAHERAATMRKAAALVRERADAIAQLMTQEQGKPLTEARVEVLSAADIIEWFADEGRRVYGRIVPPRNLGAQQTVVKEPVGPVAAFTPWNFPVNQVVRKLSAALATGCSFLVKAPEETPASPAALLRAFVDAGVPAGVIGLVYGDPAEISSYLIPHPVIRKVTFTGSTPVGKQLASLAGLHMKRATMELGGHAPVIVAEDADVALAVKAAGGAKFRNAGQVCISPTRFLVHNSIRDEFTRALVKHAEGLKVGNGLEEGTTLGALANPRRLTAMASVIDNARKVGASIETGGERIGSEGNFFAPTVIANVPLDADVFNNEPFGPVAAIRGFDKLEEAIAEANRLPFGLAGYAFTRSFANVHLLTQRLEVGMLWINQPATFWPEMPFGGVKDSGYGSEGGPEALEPYLVTKSVTVMAV
B2: AbKGSADH (Azospirillum brasilense; P444L) (protein)
chain: B1 chain with F443L
B3: AbKGSADH (Azospirillum brasilense; S109L) (protein)
chain: B1 chain with S108L, F443P
B4: AbKGSADH (Azospirillum brasilense; I288T) (protein)
chain: B1 chain with I287T, F443P
B5: AbKGSADH (Azospirillum brasilense; S109G) (protein)
chain: B1 chain with S108G, F443P
B6: AbKGSADH (Azospirillum brasilense; P444S) (protein)
chain: B1 chain with F443S
B7: AbKGSADH (Azospirillum brasilense) (protein)
chain: B1 chain with F443P
B8: AbKGSADH (Azospirillum brasilense; R281F) (protein)
chain: B1 chain with R280F, F443P
B9: AbKGSADH (Azospirillum brasilense; R281Q) (protein)
chain: B1 chain with R280Q, F443P
B10: AbKGSADH (Azospirillum brasilense; R281Y) (protein)
chain: B1 chain with R280Y, F443P
B11: AbKGSADH (Azospirillum brasilense; P444G) (protein)
chain: B1 chain with F443G

Substrate in the data set: O=CCCO
Description: purified protein. Format: biochemical, Azospirillum brasilense. Conditions: 500 μM NAD, 100 mM Tris-HCl pH 8.0, 25 °C, 50 nM enzyme, 0.5-10 mM 3HPA.
Broadly, the Km is the substrate concentration at which the rate is half of its maximum. One may read the kcat as the number of substrate molecules converted per active site and unit of time at saturation. By kcat/Km is commonly meant the turnover number divided by the Michaelis constant. Regarding B1, the Km is recorded as 4.714 ± 0.547 mM, the kcat amounted to 19.5 ± 1.04 s⁻¹ and the kcat/Km is 4140 M⁻¹ s⁻¹.

Regarding B2, the Km came out at 4.204 ± 1.184 mM, the turnover number (kcat) was found to be 18.8 ± 2.36 s⁻¹ and the kcat/Km was found to be 4480 M⁻¹ s⁻¹.

As for B3, the Km was found to be 4.156 ± 1.377 mM, the kcat stood at 17 ± 2.5 s⁻¹ and the specificity constant (kcat/Km) stood at 4100 M⁻¹ s⁻¹.

Regarding B4, the Km amounted to 4.593 ± 2.814 mM, the kcat was 6.12 ± 1.69 s⁻¹ and the catalytic efficiency (kcat/Km) worked out at 1330 M⁻¹ s⁻¹.

Turning to B5, the Km came to 1.646 ± 0.726 mM, the catalytic constant (kcat) is 6 ± 0.877 s⁻¹ and the kcat/Km was 3640 M⁻¹ s⁻¹.

As for B6, the Km turned out to be 4.690 ± 2.996 mM, the kcat turned out to be 17.3 ± 5.1 s⁻¹ and the kcat/Km was determined as 3700 M⁻¹ s⁻¹.

In the case of B7, the Km is 4.581 ± 0.921 mM, the catalytic constant (kcat) was determined as 21.5 ± 1.99 s⁻¹ and the specificity constant (kcat/Km) is 4700 M⁻¹ s⁻¹.

For the protein B8, the Km is reported as 3.808 ± 0.728 mM, the catalytic constant (kcat) stood at 21.9 ± 1.8 s⁻¹ and the kcat/Km is 5760 M⁻¹ s⁻¹.

On to B9, for which the Km was determined as 5.764 ± 1.462 mM, the kcat was 31.5 ± 3.94 s⁻¹ and the kcat/Km came out at 5470 M⁻¹ s⁻¹.

Regarding B10, the Km is 2.338 ± 0.372 mM, the kcat amounted to 26.6 ± 1.56 s⁻¹ and the kcat/Km is 11400 M⁻¹ s⁻¹.

For the protein B11, the Michaelis constant (Km) was determined as 3.512 ± 2.070 mM, the kcat stood at 6.59 ± 1.58 s⁻¹ and the specificity constant (kcat/Km) is 1880 M⁻¹ s⁻¹.
